Experimental data published in article PMC10786891, “Massively parallel profiling of RNA-targeting CRISPR-Cas13d”.

T1: EsCas13d, nuclease-dead (Eubacterium siraeum, UniProt B0MS50, R295A;H300A;R849A;H854A)
T1 sequence: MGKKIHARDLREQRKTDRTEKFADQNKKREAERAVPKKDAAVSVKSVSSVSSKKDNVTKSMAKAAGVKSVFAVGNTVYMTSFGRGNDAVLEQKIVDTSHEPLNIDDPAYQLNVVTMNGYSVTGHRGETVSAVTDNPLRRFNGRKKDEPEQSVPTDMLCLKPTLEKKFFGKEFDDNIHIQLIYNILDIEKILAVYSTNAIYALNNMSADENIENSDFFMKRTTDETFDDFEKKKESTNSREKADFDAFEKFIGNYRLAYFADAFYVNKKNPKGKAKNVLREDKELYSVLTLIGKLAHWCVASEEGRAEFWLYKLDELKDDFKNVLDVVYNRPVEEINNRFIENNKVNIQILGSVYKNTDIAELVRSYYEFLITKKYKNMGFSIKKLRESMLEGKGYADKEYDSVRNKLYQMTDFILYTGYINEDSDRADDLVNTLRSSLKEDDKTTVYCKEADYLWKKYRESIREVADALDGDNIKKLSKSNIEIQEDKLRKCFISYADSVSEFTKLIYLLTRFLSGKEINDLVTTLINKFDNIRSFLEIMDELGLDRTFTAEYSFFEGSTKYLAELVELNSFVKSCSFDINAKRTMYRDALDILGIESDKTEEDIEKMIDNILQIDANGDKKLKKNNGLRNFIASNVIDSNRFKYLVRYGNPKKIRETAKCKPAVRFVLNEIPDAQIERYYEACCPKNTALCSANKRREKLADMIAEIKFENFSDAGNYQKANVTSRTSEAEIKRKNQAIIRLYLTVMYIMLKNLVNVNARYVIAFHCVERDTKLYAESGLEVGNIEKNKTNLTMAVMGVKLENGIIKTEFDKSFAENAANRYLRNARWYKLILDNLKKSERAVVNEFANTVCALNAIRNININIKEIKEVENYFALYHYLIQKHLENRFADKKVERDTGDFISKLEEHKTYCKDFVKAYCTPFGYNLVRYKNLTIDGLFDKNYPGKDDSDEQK

B1: target 1 insC 3' of 11,insG 3' of 4 (mixed)
RNA 1: CACCCGUGCAAAAAUGCAGGGGUCUAAAACUGAGCGGAUAACCUCUCUAUGG
RNA 2: GGGAAUGGAUCCACAUCUACGAAUUCGUACCAUAGAGAGGUCUAUCCGCGUCACCGAGAUCGGAAGAGCACACGU
B2: target 1 A14G,U19G (mixed)
RNA 1: CACCCGUGCAAAAAUGCAGGGGUCUAAAACUGAGCGGAUAACCUCUCUAUGG
RNA 2: GGGAAUGGAUCCACAUCUACGAAUUCGUACCAGAGAGGGGUUAUCCGCUCACCGAGAUCGGAAGAGCACACGU
B3: target 1 C2G,U19G (mixed)
RNA 1: CACCCGUGCAAAAAUGCAGGGGUCUAAAACUGAGCGGAUAACCUCUCUAUGG
RNA 2: GGGAAUGGAUCCACAUCUACGAAUUCGUACCAGAGAGAGGUUAUCCGCUGACCGAGAUCGGAAGAGCACACGU
B4: target 1 insU 3' of 9,insA 3' of 8 (mixed)
RNA 1: CACCCGUGCAAAAAUGCAGGGGUCUAAAACUGAGCGGAUAACCUCUCUAUGG
RNA 2: GGGAAUGGAUCCACAUCUACGAAUUCGUACCAUAGAGAGGUUAUUACCGCUCACCGAGAUCGGAAGAGCACACGU
B5: target 1 U3A,U10C (mixed)
RNA 1: CACCCGUGCAAAAAUGCAGGGGUCUAAAACUGAGCGGAUAACCUCUCUAUGG
RNA 2: GGGAAUGGAUCCACAUCUACGAAUUCGUACCAUAGAGAGGUCAUCCGCACACCGAGAUCGGAAGAGCACACGU
B6: target 1 G5C,C6U (mixed)
RNA 1: CACCCGUGCAAAAAUGCAGGGGUCUAAAACUGAGCGGAUAACCUCUCUAUGG
RNA 2: GGGAAUGGAUCCACAUCUACGAAUUCGUACCAUAGAGAGGUUAUCUCCUCACCGAGAUCGGAAGAGCACACGU
B7: target 1 C4A,G5A (mixed)
RNA 1: CACCCGUGCAAAAAUGCAGGGGUCUAAAACUGAGCGGAUAACCUCUCUAUGG
RNA 2: GGGAAUGGAUCCACAUCUACGAAUUCGUACCAUAGAGAGGUUAUCCAAUCACCGAGAUCGGAAGAGCACACGU
B8: target 1 U19C,C21U (mixed)
RNA 1: CACCCGUGCAAAAAUGCAGGGGUCUAAAACUGAGCGGAUAACCUCUCUAUGG
RNA 2: GGGAAUGGAUCCACAUCUACGAAUUCGUACUACAGAGAGGUUAUCCGCUCACCGAGAUCGGAAGAGCACACGU
B9: target 1 insU 3' of 20,insC 3' of 8 (mixed)
RNA 1: CACCCGUGCAAAAAUGCAGGGGUCUAAAACUGAGCGGAUAACCUCUCUAUGG
RNA 2: GGGAAUGGAUCCACAUCUACGAAUUCGUACCAUUAGAGAGGUUAUCCCGCUCACCGAGAUCGGAAGAGCACACGU
B10: target 1 C2G,U11A (mixed)
RNA 1: CACCCGUGCAAAAAUGCAGGGGUCUAAAACUGAGCGGAUAACCUCUCUAUGG
RNA 2: GGGAAUGGAUCCACAUCUACGAAUUCGUACCAUAGAGAGGAUAUCCGCUGACCGAGAUCGGAAGAGCACACGU
B11: target 1 U8G,U11G (mixed)
RNA 1: CACCCGUGCAAAAAUGCAGGGGUCUAAAACUGAGCGGAUAACCUCUCUAUGG
RNA 2: GGGAAUGGAUCCACAUCUACGAAUUCGUACCAUAGAGAGGGUAGCCGCUCACCGAGAUCGGAAGAGCACACGU
B12: target 1 insG 3' of 7,insG 3' of 3 (mixed)
RNA 1: CACCCGUGCAAAAAUGCAGGGGUCUAAAACUGAGCGGAUAACCUCUCUAUGG
RNA 2: GGGAAUGGAUCCACAUCUACGAAUUCGUACCAUAGAGAGGUUAUCGCGCUGCACCGAGAUCGGAAGAGCACACGU
B13: target 1 insG 3' of 14,insC 3' of 8 (mixed)
RNA 1: CACCCGUGCAAAAAUGCAGGGGUCUAAAACUGAGCGGAUAACCUCUCUAUGG
RNA 2: GGGAAUGGAUCCACAUCUACGAAUUCGUACCAUAGAGAGGGUUAUCCCGCUCACCGAGAUCGGAAGAGCACACGU
B14: target 1 insG 3' of 14,insG 3' of 6 (mixed)
RNA 1: CACCCGUGCAAAAAUGCAGGGGUCUAAAACUGAGCGGAUAACCUCUCUAUGG
RNA 2: GGGAAUGGAUCCACAUCUACGAAUUCGUACCAUAGAGAGGGUUAUCCGGCUCACCGAGAUCGGAAGAGCACACGU
B15: target 1 C4A,U11A (mixed)
RNA 1: CACCCGUGCAAAAAUGCAGGGGUCUAAAACUGAGCGGAUAACCUCUCUAUGG
RNA 2: GGGAAUGGAUCCACAUCUACGAAUUCGUACCAUAGAGAGGAUAUCCGAUCACCGAGAUCGGAAGAGCACACGU
B16: target 1 insG 3' of 4,insG 3' of 2 (mixed)
RNA 1: CACCCGUGCAAAAAUGCAGGGGUCUAAAACUGAGCGGAUAACCUCUCUAUGG
RNA 2: GGGAAUGGAUCCACAUCUACGAAUUCGUACCAUAGAGAGGUUAUCCGCGUCGACCGAGAUCGGAAGAGCACACGU
B17: target 1 insC 3' of 13,insU 3' of 9 (mixed)
RNA 1: CACCCGUGCAAAAAUGCAGGGGUCUAAAACUGAGCGGAUAACCUCUCUAUGG
RNA 2: GGGAAUGGAUCCACAUCUACGAAUUCGUACCAUAGAGAGCGUUAUUCCGCUCACCGAGAUCGGAAGAGCACACGU
B18: target 1 C6U,A9C (mixed)
RNA 1: CACCCGUGCAAAAAUGCAGGGGUCUAAAACUGAGCGGAUAACCUCUCUAUGG
RNA 2: GGGAAUGGAUCCACAUCUACGAAUUCGUACCAUAGAGAGGUUCUCUGCUCACCGAGAUCGGAAGAGCACACGU
B19: target 1 insA 3' of 17,insA 3' of 12 (mixed)
RNA 1: CACCCGUGCAAAAAUGCAGGGGUCUAAAACUGAGCGGAUAACCUCUCUAUGG
RNA 2: GGGAAUGGAUCCACAUCUACGAAUUCGUACCAUAGAAGAGGAUUAUCCGCUCACCGAGAUCGGAAGAGCACACGU
B20: target 1 insU 3' of 18,insC 3' of 13 (mixed)
RNA 1: CACCCGUGCAAAAAUGCAGGGGUCUAAAACUGAGCGGAUAACCUCUCUAUGG
RNA 2: GGGAAUGGAUCCACAUCUACGAAUUCGUACCAUAUGAGAGCGUUAUCCGCUCACCGAGAUCGGAAGAGCACACGU
B21: target 1 A9G,A18C (mixed)
RNA 1: CACCCGUGCAAAAAUGCAGGGGUCUAAAACUGAGCGGAUAACCUCUCUAUGG
RNA 2: GGGAAUGGAUCCACAUCUACGAAUUCGUACCAUCGAGAGGUUGUCCGCUCACCGAGAUCGGAAGAGCACACGU
B22: target 1 insU 3' of 20,insG 3' of 4 (mixed)
RNA 1: CACCCGUGCAAAAAUGCAGGGGUCUAAAACUGAGCGGAUAACCUCUCUAUGG
RNA 2: GGGAAUGGAUCCACAUCUACGAAUUCGUACCAUUAGAGAGGUUAUCCGCGUCACCGAGAUCGGAAGAGCACACGU
B23: target 1 insC 3' of 22,insC 3' of 3 (mixed)
RNA 1: CACCCGUGCAAAAAUGCAGGGGUCUAAAACUGAGCGGAUAACCUCUCUAUGG
RNA 2: GGGAAUGGAUCCACAUCUACGAAUUCGUACCCAUAGAGAGGUUAUCCGCUCCACCGAGAUCGGAAGAGCACACGU
B24: target 1 insC 3' of 17,insC 3' of 5 (mixed)
RNA 1: CACCCGUGCAAAAAUGCAGGGGUCUAAAACUGAGCGGAUAACCUCUCUAUGG
RNA 2: GGGAAUGGAUCCACAUCUACGAAUUCGUACCAUAGCAGAGGUUAUCCGCCUCACCGAGAUCGGAAGAGCACACGU
B25: target 1 G15A,U19A (mixed)
RNA 1: CACCCGUGCAAAAAUGCAGGGGUCUAAAACUGAGCGGAUAACCUCUCUAUGG
RNA 2: GGGAAUGGAUCCACAUCUACGAAUUCGUACCAAAGAAAGGUUAUCCGCUCACCGAGAUCGGAAGAGCACACGU
B26: target 1 insU 3' of 14,insG 3' of 8 (mixed)
RNA 1: CACCCGUGCAAAAAUGCAGGGGUCUAAAACUGAGCGGAUAACCUCUCUAUGG
RNA 2: GGGAAUGGAUCCACAUCUACGAAUUCGUACCAUAGAGAUGGUUAUGCCGCUCACCGAGAUCGGAAGAGCACACGU
B27: target 1 insA 3' of 15,insA 3' of 11 (mixed)
RNA 1: CACCCGUGCAAAAAUGCAGGGGUCUAAAACUGAGCGGAUAACCUCUCUAUGG
RNA 2: GGGAAUGGAUCCACAUCUACGAAUUCGUACCAUAGAGAAGGUAUAUCCGCUCACCGAGAUCGGAAGAGCACACGU
B28: target 1 insC 3' of 16,insC 3' of 16 (mixed)
RNA 1: CACCCGUGCAAAAAUGCAGGGGUCUAAAACUGAGCGGAUAACCUCUCUAUGG
RNA 2: GGGAAUGGAUCCACAUCUACGAAUUCGUACCAUAGACCGAGGUUAUCCGCUCACCGAGAUCGGAAGAGCACACGU

Each binder was assayed against T1, EsCas13d, nuclease-dead (assay: crRNA (strand 1, pre-loaded); Mg2+; 40 mM Tris-HCl pH 7.5, 150 mM NaCl, 6 mM MgCl2, 1 mM DTT, 0.1% Tween-20, 0.2 mg/ml BSA; 25 C; 10 min per concentration, then washed). Conditions: tags: His6-TwinStrep-SUMO cleaved; N-terminal SNAP kept (SNAP-Surface 488); label: 3' end held by stalled T7 RNA polymerase.
B1 gave a Kd of 22.7 ± 1.2 nM. In the case of B2, the Kd is reported as about 80 nM. Binder B3 has a Kd of 38 ± 4 nM. B4 showed a Kd of 9.8 ± 0.4 nM. For B5, the Kd was 19.7 ± 2 nM. B6 was tested, and the Kd was 11.6 ± 0.4 nM. B7 was tested, and the Kd was 44 ± 7 nM. B8 showed a Kd of 5.98 ± 0.2 nM. Binder B9 has a Kd of 19.1 ± 1 nM. B10 gave a Kd of 13.6 ± 1.1 nM. Binder B11 has a Kd of 18.9 ± 0.7 nM. With B12 the Kd was 5.41 ± 0.21 nM. For B13, the Kd was 41 ± 5 nM. With B14 the Kd was 10.7 ± 0.9 nM. Work on B15 yielded a Kd of 23.9 ± 1.8 nM. B16 was tested, and the Kd was 4.72 ± 0.29 nM. With B17 the Kd was 10 ± 0.5 nM. B18 was tested, and the Kd was 33.1 ± 1.9 nM. For B19, the Kd was 42 ± 8 nM. Work on B20 yielded a Kd of 49 ± 7 nM. B21 showed a Kd of 64 ± 7 nM. B22 was tested, and the Kd was 10.4 ± 0.7 nM. B23 was tested, and the Kd was 15.6 ± 1.3 nM. B24 showed a Kd of 61 ± 6 nM. With B25 the Kd was 60 ± 19 nM. In the case of B26, the Kd is reported as 38.1 ± 2.5 nM. In the case of B27, the Kd is reported as 14.8 ± 0.8 nM. B28 gave a Kd of 72 ± 22 nM.
